Consider seven sequences from the supplement of paper PMC5998384.

Data set [1] concerns HeLa Kyoto. As to the kind of experiment: thermal stability score vs G1/S (z-score of summed log2 fold changes over temperatures); higher = more thermally stable than in G1/S.
Data set [2] relates to HeLa Kyoto. Put plainly: solubility change mitosis vs G1/S (difference of NP-40 vs SDS log2 ratios) (log2 ratio difference); higher = more soluble in mitosis.
In data set [3] the test system is HeLa Kyoto. Put plainly: solubility in G1/S (NP-40 vs SDS abundance) (log2 ratio); higher = more soluble. Conditions: cell cycle stage: G1/S.
For data set [4], the system named is HeLa Kyoto. As to the kind of experiment: melting temperature (median over replicates), in situ; higher = more thermally stable.
Setting [5] is: cell cycle stage: early G1 (4.5 h after nocodazole release).
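For melting temperature (median over replicates), in situ in this document: HeLa Kyoto cells synchronized by double thymidine or nocodazole block, proteins quantified by TMT10plex mass spectrometry, three independent biological replicates.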
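For solubility change mitosis vs G1/S (difference of NP-40 vs SDS log2 ratios) in this document: synchronized HeLa Kyoto cells (double thymidine block for G1/S, nocodazole release for mitosis), protein amounts in NP-40 versus SDS lysates quantified by mass spectrometry, three biological replicates.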
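For solubility in G1/S (NP-40 vs SDS abundance) in this document: HeLa Kyoto cells arrested at G1/S by double thymidine block, proteins quantified by TMT10plex mass spectrometry in mild NP-40 versus SDS extracts, three biological replicates.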
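For thermal stability score vs G1/S (z-score of summed log2 fold changes over temperatures) in this document: synchronized HeLa Kyoto cells, proteins quantified by TMT10plex mass spectrometry, three biological replicates, mitosis taken 0.5 h after nocodazole release, G1/S directly after double thymidine block.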

For “MVFPAKRFCLVPSMEGVRWAFSCGTWLPSRAEWLLAVRSIQPEEKERIGQFVFARDAKAAMAGRLMIRKLVAEKLNIPWNHIRLQRTAKGKPVLAKDSSNPYPNFNFNISHQGDYAVLAAEPELQVGIDIMKTSFPGRGSIPEFFHIMKRKFTNKEWETIRSFKDEWTQLDMFYRNWALKESFIKAIGVGLGFELQRLEFDLSPLNLDIGQVYKETRLFLDGEEEKEWAFEESKIDEHHFVAVALRKPDGSRHQDVPSQDDSKPTQRQFTILNFNDLMSSAVPMTPEDPSFWDCFCFTEEIPIRNGTKS [AASDHPPT]”, the thermal stability score in the data set with HeLa Kyoto [1] (setting [5]) is 0.145; in the data set with HeLa Kyoto [1] (cell cycle stage: mitosis), -0.453. For the same sequence, the “solubility change mitosis (log2)” value in the data set on HeLa Kyoto [2] was -0.124. The “solubility in G1/S (log2)” value in the data set with HeLa Kyoto [3] turned out to be 0.0817. For the same sequence, the melting temperature was found to be 52.3 °C in the data set with HeLa Kyoto [4] (cell cycle stage: G1/S) and 52.4 °C in the data set with HeLa Kyoto [4] (cell cycle stage: mitosis).
Turning to “MVFYFTSSSVNSSAYTIYMGKDKYENEDLIKHGWPEDIWFHVDKLSSAHVYLRLHKGENIEDIPKEVLMDCAHLVKANSIQGCKMNNVNVVYTPWSNLKKTADMDVGQIGFHRQKDVKIVTVEKKVNEILNRLEKTKVERFPDLAAEKECRDREERNEKKAQIQEMKKREKEEMKKKREMDELRSYSSLMKVENMSSNQDGNDSDEFM [CCDC25]”, the results for the thermal stability score in the data set with HeLa Kyoto [1] (setting [5]) and in the data set with HeLa Kyoto [1] (cell cycle stage: mitosis) were -0.0583 and -0.134, respectively. In addition, the “solubility change mitosis (log2)” value in the data set with HeLa Kyoto [2] was -0.118. Besides, the “solubility in G1/S (log2)” value in the data set on HeLa Kyoto [3] came out at 0.0307. For the same sequence, the melting temperature came to 50.4 °C in the data set with HeLa Kyoto [4] (cell cycle stage: G1/S) and 50.6 °C in the data set on HeLa Kyoto [4] (cell cycle stage: mitosis).
With “MVGREKELSIHFVPGSCRLVEEEVNIPNRRVLVTGATGLLGRAVHKEFQQNNWHAVGCGFRRARPKFEQVNLLDSNAVHHIIHDFQPHVIVHCAAERRPDVVENQPDAASQLNVDASGNLAKEAAAVGAFLIYISSDYVFDGTNPPYREEDIPAPLNLYGKTKLDGEKAVLENNLGAAVLRIPILYGEVEKLEESAVTVMFDKVQFSNKSANMDHWQQRFPTHVKDVATVCRQLAEKRMLDPSIKGTFHWSGNEQMTKYEMACAIADAFNLPSSHLRPITDSPVLGAQRPRNAQLDCSKLETLGIGQRTPFRIGIKESLWPFLIDKRWRQTVFH [MAT2B]”, the thermal stability score in the data set with HeLa Kyoto [1] (setting [5]) is -0.304; with HeLa Kyoto [1] (cell cycle stage: mitosis), -1.94. In the data set with HeLa Kyoto [2], the “solubility change mitosis (log2)” value was -0.0436. For the same sequence, the “solubility in G1/S (log2)” value in the data set on HeLa Kyoto [3] stood at 0.344. Moreover, the results for the melting temperature in the data set with HeLa Kyoto [4] (cell cycle stage: G1/S) and with HeLa Kyoto [4] (cell cycle stage: mitosis) were 55.5 °C and 56.3 °C, respectively.
As to “MVGVKPVGSDPDFQPELSGAGSRLAVVKFTMRGCGPCLRIAPAFSSMSNKYPQAVFLEVDVHQCQGTAATNNISATPTFLFFRNKVRIDQYQGADAVGLEEKIKQHLENDPGSNEDTDIPKGYMDLMPFINKAGCECLNESDEHGFDNCLRKDTTFLESDCDEQLLITVAFNQPVKLYSMKFQGPDNGQGPKYVKIFINLPRSMDFEEAERSEPTQALELTEDDIKEDGIVPLRYVKFQNVNSVTIFVQSNQGEEETTRISYFTFIGTPVQATNMNDFKRVVGKKGESH [TXNL1]”, the results for the thermal stability score in the data set on HeLa Kyoto [1] (setting [5]) and in the data set on HeLa Kyoto [1] (cell cycle stage: mitosis) were -0.465 and -0.0973, respectively. The “solubility change mitosis (log2)” value in the data set on HeLa Kyoto [2] was -0.112. Also, in the data set on HeLa Kyoto [3], the “solubility in G1/S (log2)” value is 0.258. Besides, the melting temperature in the data set on HeLa Kyoto [4] (cell cycle stage: G1/S) turned out to be 50.1 °C; in the data set with HeLa Kyoto [4] (cell cycle stage: mitosis) it was 50.2 °C.
In the case of “MVGYDPKPDGRNNTKFQVAVAGSVSGLVTRALISPFDVIKIRFQLQHERLSRSDPSAKYHGILQASRQILQEEGPTAFWKGHVPAQILSIGYGAVQFLSFEMLTELVHRGSVYDAREFSVHFVCGGLAACMATLTVHPVDVLRTRFAAQGEPKVYNTLRHAVGTMYRSEGPQVFYKGLAPTLIAIFPYAGLQFSCYSSLKHLYKWAIPAEGKKNENLQNLLCGSGAGVISKTLTYPLDLFKKRLQVGGFEHARAAFGQVRRYKGLMDCAKQVLQKEGALGFFKGLSPSLLKAALSTGFMFFSYEFFCNVFHCMNRTASQR [SLC25A19]”, the thermal stability score in the data set on HeLa Kyoto [1] (setting [5]) was -0.746; in the data set with HeLa Kyoto [1] (cell cycle stage: mitosis), -1.27. Besides, the “solubility change mitosis (log2)” value in the data set on HeLa Kyoto [2] was -0.0971. The “solubility in G1/S (log2)” value in the data set with HeLa Kyoto [3] is -0.155. Moreover, the melting temperature with HeLa Kyoto [4] (cell cycle stage: G1/S) is 56.4 °C; in the data set on HeLa Kyoto [4] (cell cycle stage: mitosis), 55.6 °C.
In the case of “MVHQVLYRALVSTKWLAESIRTGKLGPGLRVLDASWYSPGTREARKEYLERHVPGASFFDIEECRDTASPYEMMLPSEAGFAEYVGRLGISNHTHVVVYDGEHLGSFYAPRVWWMFRVFGHRTVSVLNGGFRNWLKEGHPVTSEPSRPEPAVFKATLDRSLLKTYEQVLENLESKRFQLVDSRSQGRFLGTEPEPDAVGLDSGHIRGAVNMPFMDFLTEDGFEKGPEELRALFQTKKVDLSQPLIATCRKGVTACHVALAAYLCGKPDVAVYDGSWSEWFRRAPPESRVSQGKSEKA [TST]”, the thermal stability score in the data set on HeLa Kyoto [1] (setting [5]) amounted to 5.41; in the data set with HeLa Kyoto [1] (cell cycle stage: mitosis), 3.98. For the same sequence, in the data set with HeLa Kyoto [2], the “solubility change mitosis (log2)” value was -0.0824. Besides, the “solubility in G1/S (log2)” value in the data set on HeLa Kyoto [3] came out at 0.187. In addition, the results for the melting temperature in the data set on HeLa Kyoto [4] (cell cycle stage: G1/S) and in the data set with HeLa Kyoto [4] (cell cycle stage: mitosis) were 48.3 °C and 49.3 °C, respectively.
In the case of “MVISESMDILFRIRGGLDLAFQLATPNEIFLKKALKHVLSDLSTKLSSNALVFRICHSSVYIWPSSDINTIPGELTDASACKNILRFIQFEPEEDIKRKFMRKKDKKLSDMHQIVNIDLMLEMSTSLAAVTPIIERESGGHHYVNMTLPVDAVISVAPEETWGKVRKLLVDAIHNQLTDMEKCILKYMKGTSIVVPEPLHFLLPGKKNLVTISYPSGIPDGQLQAYRKELHDLFNLPHDRPYFKRSNAYHFPDEPYKDGYIRNPHTYLNPPNMETGMIYVVQGIYGYHHYMQDRIDDNGWGCAYRSLQTICSWFKHQGYTERSIPTHREIQQALVDAGDKPATFVGSRQWIGSIEVQLVLNQLIGITSKILFVSQGSEIASQGRELANHFQSEGTPVMIGGGVLAHTILGVAWNEITGQIKFLILDPHYTGAEDLQVILEKGWCGWKGPDFWNKDAYYNLCLPQRPNMI [UFSP2]”, the thermal stability score with HeLa Kyoto [1] (setting [5]) was -0.738; with HeLa Kyoto [1] (cell cycle stage: mitosis) it was -0.716. The “solubility change mitosis (log2)” value in the data set with HeLa Kyoto [2] was -0.212. The “solubility in G1/S (log2)” value with HeLa Kyoto [3] was -0.0543. The melting temperature was 51.2 °C with HeLa Kyoto [4] (cell cycle stage: G1/S) and 51 °C in the data set on HeLa Kyoto [4] (cell cycle stage: mitosis).
